Experimental data published in patent US20220033439A1 (SEOUL NATIONAL UNIVERSITY R AND DB FOUNDATION, published 2022).

B1: Mycobacterium tuberculosis antitoxin protein VapB26 (other)
chain: MDKTTVYLPDELKAAVKRAARQRGVSEAQVIRESIRAAVGGAKPPPRGGLYAGSEPIARRVDELLAGFGER
B2: Mycobacterium tuberculosis toxin protein VapC26 (enzyme)
chain: MIIDTSALLAYFDAAEPDHAAVSECIDSSADALVVSPYVVAELDYLVATRVGVDAELAVLRELAGGAWELANCGAAEIEQAARIVTKYQDQRIGIADAANVVLADRYRTRTILTLDRRHFSALRPIGGGRFTVIP

What was measured:
[1] = target: B2; assay: size exclusion chromatography with multi-angle light scattering
[2] = target: the molecule itself; assay: crystal structure and size exclusion chromatography with MALS; VapB26 homodimer
[3] = target: the molecule itself; assay: crystal structure; VapC26 homodimer

## B1
[1]
  binding result: binds
[2]
  binding result: binds

## B2
[3]
  binding result: binds
